{"source": "patent US20190071480A1", "about": "(Biogen, published 2019)", "binders": {"B1": {"name": "SEQ ID NO: 332, cysteine pairs C15-C15^b, C80-C112^a, C79-C114^a, C44-C48^a (designed binder)", "chain": "GQAKRKGYKRLKSSCKRHPLYVDFSDVGWNDWIVAPPGYHAFYCHGECPFPLADHLNSTNHAIVQTLVNSVNSKDPKACCVPTELSAPSPLYLDENEKPVLKNYQDMVVHGCGCR", "modifications": "disulfides C15-C15 (inter), C80-C112 (intra), C79-C114 (intra), C44-C48 (intra)", "notes": "homodimer by intermolecular disulfide"}, "B2": {"name": "SEQ ID NO: 332, cysteine pairs C15-C15^b, C80-C114^a, C79-C112^a, C44-C48^a (designed binder)", "chain": "B1 chain", "modifications": "disulfides C15-C15 (inter), C80-C114 (intra), C79-C112 (intra), C44-C48 (intra)", "notes": "as for B1"}, "B3": {"name": "SEQ ID NO: 332, cysteine pairs C15-C15^b, C80-C114^b, C79-C112^b, C44-C48^a (designed binder)", "chain": "B1 chain", "modifications": "disulfides C15-C15 (inter), C80-C114 (inter), C79-C112 (inter), C44-C48 (intra)", "notes": "as for B1"}, "B4": {"name": "SEQ ID NO: 332, cysteine pairs C79-C80^a (designed binder)", "chain": "B1 chain", "modifications": "disulfides C79-C80 (intra)"}, "B5": {"name": "SEQ ID NO: 348, cysteine pairs C29-C30^a (designed binder)", "chain": "GQAKRKGYKRLKSSCKRHPLYNSKIPKACCVPTELSAISMLYLDENEKVVLKNYQDMVVEGCGCRVDFSDVGWNDWIVAPPGYHAFYCHGECPFPLADHLNSTNHAIVQTLVNSV", "modifications": "disulfides C29-C30 (intra)"}, "B6": {"name": "SEQ ID NO: 348, cysteine pairs C15-C15^b, C29-C64^a, C30-C62^a, C88-C92^a (designed binder)", "chain": "B5 chain", "modifications": "disulfides C15-C15 (inter), C29-C64 (intra), C30-C62 (intra), C88-C92 (intra)", "notes": "as for B1"}, "B7": {"name": "SEQ ID NO: 348, cysteine pairs C15-C15^b, C29-C62^b, C30-C64^b, C88-C92^a (designed binder)", "chain": "B5 chain", "modifications": "disulfides C15-C15 (inter), C29-C62 (inter), C30-C64 (inter), C88-C92 (intra)", "notes": "as for B1"}, "B8": {"name": "Recombinant polypeptide of clones 17 + 18 (designed binder)", "chain": "VDFSDVGWNDWIVAPPGYHAFYCHGECPFPLADHLNSDNHAIVQTLVNSVVDFSDVGWNDHAVAPPGYHAFYCHGECPFPLADHLNSTNHAIVQTLVNSV"}, "B9": {"name": "Recombinant polypeptide of clones 23 + 24 (designed binder)", "chain": "NSKIPKACCVPTELSAISMLYLDENEKPVLKNYQDMVVEGCGCRNSKDPKACCVPTELSAISMLYLDENEKVVLKNYQDMVVHGCGCR"}}, "key": {"[1]": {"target": "T1, extracellular domain of activin receptor type IIB (ActRIIBecd), biotinylated (Homo sapiens (Human), UniProt Q13705 27-117, amino-biotinylated with amine-PEG3-Biotin)", "T1 construct": "immobilised on a streptavidin-coated sensor chip; also called biotinylated ActRIIBecd; extracellular domain of ActRIIB", "T1 sequence": "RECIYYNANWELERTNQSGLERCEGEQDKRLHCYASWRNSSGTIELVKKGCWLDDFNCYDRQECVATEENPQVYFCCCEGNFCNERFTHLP", "assay": "BIAcore SPR as Example 5 (method not restated); SD ±1.84 nM", "experimental": "(§1) Biosensor experiments. In one embodiment, experiments were performed on a BIAcore™ T100/T200 instrument (Pharmacia Biosensor AB) in the multichannel mode (serial flow path involving flow cells 1+2+3+4). Flow rate was 10 μl/min; temperature was 25° C.; and data were recorded at 2.5 points/s. All four segments of a sensor chip CMS were coated with streptavidin (Sigma) to a density of 2000 pg/mm² (2000 resonance units) by the aminocoupling procedure. ActRIIBecd (10 mg) and amine-PEG3-Biotin (10 mg, Pierce, Rockford, Ill.) were dissolved in 200 μl H₂O and 10 mg NaCNBH₃ was added to prepare biotinylated ActRIIBecd. The reaction mixture was heated at 70° C. for 24 h, after that a further 10 mg NaCNBH₃ was added and the reaction was heated at 70° C. for another 24 h. After cooling to room temperature, the mixture was desalted with the spin column (3,000 molecular weight cut off (MWCO)). […] Sensograms were recorded during flow of the analyte (the ActRIIBecd-associated polypeptides (i.e., domains) as previously described) first through flow cell 1 (control) then through flow cell 2 (biotinylated ActRIIBecd). […] The sensograms obtained at 1.11, 3.33, 10, 30, and 90 nM analyte were evaluated for equilibrium binding, association rate, and dissociation rate by using the programs supplied with the instrument (BIA evaluation 2.1; Software Handbook. 1995; Pharmacia Biosensor AB)."}, "[2]": {"target": "T1, extracellular domain of activin …", "assay": "Mean KD column of Table 5; method not restated (BIAcore as Example 5); species also listed in Table 4", "method_in_brief": "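On a chip first coated with amine-coupled streptavidin (about 2000 RU), the biotin-conjugated receptor ectodomain was bound to 50-250 RU. Polypeptide solutions (1.11-90 nM, glycine buffer pH 4.5) passed over it at 10 μl/min and 25° C, and the resulting traces gave association rate, dissociation rate and equilibrium binding.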"}, "[3]": {"target": "T1, extracellular domain of activin …", "assay": "BIAcore SPR as Example 5 (method not restated); SD ±1.11 nM", "experimental": "as §1"}, "[4]": {"target": "T1, extracellular domain of activin …", "assay": "BIAcore SPR as Example 5 (method not restated); SD ±1.94 nM", "experimental": "as §1"}, "[5]": {"target": "T1, extracellular domain of activin …", "assay": "BIAcore SPR as Example 5 (method not restated); SD ±2.36 nM", "experimental": "as §1"}, "[6]": {"target": "T1, extracellular domain of activin …", "assay": "BIAcore SPR as Example 5 (method not restated); SD ±3.33 nM", "experimental": "as §1"}, "[7]": {"target": "T1, extracellular domain of activin …", "assay": "BIAcore SPR as Example 5 (method not restated); SD ±1.92 nM", "experimental": "as §1"}, "[8]": {"target": "T1, extracellular domain of activin …", "assay": "BIAcore SPR as Example 5 (method not restated); SD ±1.45 nM", "experimental": "as §1"}, "[9]": {"target": "T1, extracellular domain of activin …", "assay": "BIAcore SPR, biotinylated ActRIIBecd on chip; SD ±11.88 nM", "experimental": "as §1"}, "[10]": {"target": "T1, extracellular domain of activin …", "assay": "BIAcore SPR, biotinylated ActRIIBecd on chip; SD ±13.69 nM"}, "[11]": {"target": "T1, extracellular domain of activin …", "assay": "BIAcore SPR, biotinylated ActRIIBecd on chip; SD ±18.52 nM", "experimental": "as §1"}, "[12]": {"target": "T1, extracellular domain of activin …", "assay": "BIAcore SPR, biotinylated ActRIIBecd on chip; SD ±17.42 nM", "experimental": "as §1"}, "[13]": {"target": "T1, extracellular domain of activin …", "assay": "BIAcore SPR, biotinylated ActRIIBecd on chip; SD ±13.59 nM", "experimental": "as §1"}, "[14]": {"target": "T1, extracellular domain of activin …", "assay": "BIAcore SPR, biotinylated ActRIIBecd on chip; SD ±14.15 nM", "experimental": "as §1"}, "[15]": {"target": "T1, extracellular domain of activin …", "assay": "BIAcore SPR, biotinylated ActRIIBecd on chip; SD ±16.14 nM", "experimental": "as §1"}, "[16]": {"target": "T1, extracellular domain of activin …", "assay": "BIAcore SPR, biotinylated ActRIIBecd on chip; SD ±14.42 nM", "experimental": "as §1"}, "[17]": {"target": "T1, extracellular domain of activin …", "assay": "BIAcore SPR, biotinylated ActRIIBecd on chip; SD ±13.44 nM", "experimental": "as §1"}, "[18]": {"target": "T1, extracellular domain of activin …", "assay": "BIAcore SPR, biotinylated ActRIIBecd on chip; SD ±19.71 nM", "experimental": "as §1"}, "[19]": {"target": "T1, extracellular domain of activin …", "assay": "BIAcore SPR, biotinylated ActRIIBecd on chip; SD ±18.15 nM", "experimental": "as §1"}, "[20]": {"target": "T1, extracellular domain of activin …", "assay": "BIAcore SPR, biotinylated ActRIIBecd on chip; SD ±19.56 nM", "experimental": "as §1"}, "[21]": {"target": "T1, extracellular domain of activin …", "assay": "BIAcore SPR, biotinylated ActRIIBecd on chip; SD ±15.74 nM", "experimental": "as §1"}}}
{"binder": "B1", "values": [{"measurement": "Kd", "setting": "[1]", "result": 7.18, "unit": "nM"}, {"measurement": "Kd", "setting": "[2]", "result": 7.18, "unit": "nM"}]}
{"binder": "B2", "values": [{"measurement": "Kd", "setting": "[3]", "result": 5.98, "unit": "nM"}, {"measurement": "Kd", "setting": "[2]", "result": 5.98, "unit": "nM"}]}
{"binder": "B3", "values": [{"measurement": "Kd", "setting": "[4]", "result": 7.42, "unit": "nM"}, {"measurement": "Kd", "setting": "[2]", "result": 7.42, "unit": "nM"}]}
{"binder": "B4", "values": [{"measurement": "Kd", "setting": "[5]", "result": 28.5, "unit": "nM"}, {"measurement": "Kd", "setting": "[2]", "result": 28.5, "unit": "nM"}]}
{"binder": "B5", "values": [{"measurement": "Kd", "setting": "[2]", "result": 29.1, "unit": "nM"}, {"measurement": "Kd", "setting": "[6]", "result": 29.1, "unit": "nM"}]}
{"binder": "B6", "values": [{"measurement": "Kd", "setting": "[7]", "result": 6.77, "unit": "nM"}, {"measurement": "Kd", "setting": "[2]", "result": 6.77, "unit": "nM"}]}
{"binder": "B7", "values": [{"measurement": "Kd", "setting": "[2]", "result": 6.31, "unit": "nM"}, {"measurement": "Kd", "setting": "[8]", "result": 6.31, "unit": "nM"}]}
{"binder": "NSKIPKACCVPTELSAISMLYLDENEKVVLKNYQDMVVEGCGCR", "note": "[Clone No. 21 domain (ActRIIBecd-associated polypeptide)]", "values": [{"measurement": "Kd", "setting": "[9]", "result": 37.1, "unit": "nM"}]}
{"binder": "NSKDPKACCVPTELSAPSPLYLDENEKPVLKNYQDMVVHGCGCR", "note": "[Clone No. 19 domain (ActRIIBecd-associated polypeptide)]", "values": [{"measurement": "Kd", "setting": "[10]", "result": 40.1, "unit": "nM"}]}
{"binder": "NSKIPKACCVPTELSAISPLYLDENEKVVLKNYQDMVVHGCGCR", "note": "[Clone No. 22 domain (ActRIIBecd-associated polypeptide)]", "values": [{"measurement": "Kd", "setting": "[11]", "result": 51.7, "unit": "nM"}]}
{"binder": "NSKIPKACCVPTELSAISMLYLDENEKPVLKNYQDMVVEGCGCR", "note": "[Clone No. 23 domain (ActRIIBecd-associated polypeptide)]", "values": [{"measurement": "Kd", "setting": "[12]", "result": 64.4, "unit": "nM"}]}
{"binder": "NSKDPKACCVPTELSAISMLYLDENEKVVLKNYQDMVVHGCGCR", "note": "[Clone No. 24 domain (ActRIIBecd-associated polypeptide)]", "values": [{"measurement": "Kd", "setting": "[13]", "result": 56.7, "unit": "nM"}]}
{"binder": "TYPASPKPMRHKMRSCACCAGGLRNRTGTV", "note": "[Clone No. 25 domain (ActRIIBecd-associated polypeptide)]", "values": [{"measurement": "Kd", "setting": "[14]", "result": 41.1, "unit": "nM"}]}
{"binder": "TYPASPKPMRHSMRSCACCAGGLRNQTGTV", "note": "[Clone No. 26 domain (ActRIIBecd-associated polypeptide)]", "values": [{"measurement": "Kd", "setting": "[15]", "result": 39.6, "unit": "nM"}]}
{"binder": "EPLGGARWEAFDVTDAVQSHRRSPRASRKCCLGLRAVTAS", "note": "[Clone No. 28 domain (ActRIIBecd-associated polypeptide)]", "values": [{"measurement": "Kd", "setting": "[16]", "result": 53.8, "unit": "nM"}]}
{"binder": "EPLGGARWEAFDVTDAVQSHRRSQRASRKCCLVLRAVTAS", "note": "[Clone No. 29 domain (ActRIIBecd-associated polypeptide)]", "values": [{"measurement": "Kd", "setting": "[17]", "result": 57.9, "unit": "nM"}]}
{"binder": "AQAKHKGYKRLKSSCKRHPLYAQAKHKGRKRLKSSCKRHPLY (designed binder)", "note": "[Recombinant polypeptide of clones 9 + 11]", "values": [{"measurement": "Kd", "setting": "[18]", "result": 59.1, "unit": "nM"}]}
{"binder": "AQAKHKGRKRLKSSCKRHPLYAQAKHKGYKRLKSSCKRHPLY (designed binder)", "note": "[Recombinant polypeptide of clones 11 + 9]", "values": [{"measurement": "Kd", "setting": "[19]", "result": 58.2, "unit": "nM"}]}
{"binder": "B8", "values": [{"measurement": "Kd", "setting": "[20]", "result": 65.8, "unit": "nM"}]}
{"binder": "B9", "values": [{"measurement": "Kd", "setting": "[21]", "result": 61.8, "unit": "nM"}]}
